In the nanobody polyreactivity screen of Harvey et al. (2022):

Test: yeast display, Sf9 membrane polyspecificity reagent, FACS + sequencing; frameworks hold sequencing errors
How it was run: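 Nanobodies came from a synthetic yeast display library in Saccharomyces cerevisiae BJ5465, induced with galactose for 36–48 hours and stained for 1 hour at 4 °C with 10% biotinylated, detergent-solubilized Sf9 membrane reagent. Cells were enriched on streptavidin microbeads and then FACS-sorted, with low and high (top ~1%) gates set on anti-HA fluorescence for expression and streptavidin fluorescence for reagent binding. Each polyreactivity label reflects the gate a clone came from. Genes were amplified by colony PCR, sequenced by MiSeq 2 × 250 and filtered by CDR length.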

Row | Sequence | polyreactivity (PSR sort gate)
1 | QVQLVESGGGLVQAGGSLRLSCAASGRTFAWYAMGWYRQAPGKERELVAAITTRGSGTYYADSVKGRFTISRDNAKNTVYLQMNSLKPEDTAVYYCAKDPITATTLDERVFYWGQGTQVTVSS | low polyreactivity
2 | QVQLVESGGGLVQAGGSLRLSCAASGRTFAWYTMGWYRQAPGKERELVASITKRGGRTYYADSVKGRFTISRDNAKNTVYLQMNSLKPEDTAVYYCAAGASQGRGTVTFDYWGQGTQVTVSS | high polyreactivity
3 | QVQLVESGGGLVQAGGSLRLSCAASGRTFAYNAMGWYRQAPGKDRELVAAITRRGGSTYYADSVKGRFTISRDNAKNTVYLQMNSLKPEDTAVYDCAKVLGGLPHGEVLDEYDYWGQGTQVTVSS | low polyreactivity
4 | QVQLVESGGGLVQAGGSLRLSCAASGRTFAYNAMGWYRQAPGKERELVADITWSGDSTYYADSVKGRFTISRDNAKNTVYLQMNSLKPEDTAVYYCAADYFGGPSYEFDYWGQGTQVTVSS | low polyreactivity
5 | QVQLVESGGGLVQAGGSLRLSCAASGRTFAYTDMGWYRQAPGNERELVAAISWSDGTTYYADSVKGRFTISRDNAKNTVYLQMNSLKPEDTAVYYCAAESYPSEVASYVSEYDYWGQGTQVTVSA | low polyreactivity
6 | QVQLVESGGGLVQAGGSLRLSCAASGRTFAYYAMGWYRQAPGTERELVAGITYSGGRTYYADSVKGRFTISRDNAKNTVYLQMNSLKPEDTAVYYCATRWPSKPTSRAMYYWGQGTQVTVSS | high polyreactivity
7 | QVQLVESGGGLVQAGGSLRLSCAASGRTFDAYAMGRYRQAPGKERELVARITSGGSTKYADSVKGRFTISRDNAKNTVYLQMNSLKPEDTAVYYCAAAQYWPSFFSNRVYYRNDYWGQGTQVTVSS | high polyreactivity
8 | QVQLVESGGGLVQAGGSLRLSCAASGRTFDAYAMGWYRQAPGKERELVAAISSGGSTNYADSVKGRFTISRDHAKNTVYLQKNSLKPEDTAVYYCAAEYIQYLFYSVRVAYDYWGQGTQVTVSS | low polyreactivity
9 | QVQLVESGGGLVQAGGSLRLSCAASGRTFDAYAMGWYRQAPGKERELVATITSGGGTYYADSVKGRFTISRDNAKNTVYLQMNSLKPEDTAVYYCNISYVVSRKYDYWGQGTQVTVSS | low polyreactivity
10 | QVQLVESGGGLVQAGGSLRLSCAASGRTFDDNAMGWYRPAPGKARELVAAISTTGSTNYADSVKGRFTISRDNAQTTVYLQMNSLKPEDTAFYYCAADSTPYVRSGNYDYWGQGTQVTVSS | low polyreactivity
11 | QVQLVESGGGLVQAGGSLRLSCAASGRTFDDNAMGWYRQAPGKERELVAAINFTGGSTYYADSVKGRFTISRDNAQNTVSLQMNSLKPEDTAVYYCAVRPGYYCGYWPRFGYWGQGSQVTVSS | low polyreactivity
12 | QVQLVESGGGLVQAGGSLRLSCAASGRTFDDYPMGWYRQAPGKDSELVAAITRRGGSTYYADSVKGRFTISRDNAKNTVYLQMNSLNPEDTAVYYCAADLFFKARGYDYWGQGTQVTVST | high polyreactivity
13 | QVQLVESGGGLVQAGGSLRLSCAASGRTFDGYAMGWYRPAPGKERELVAAISWGGGSTYYADSVKGRFTISRDNAKNTVYLQMNSLKPEDTAVYYCNAYTYYYGNDYWGQGTQVNVSS | high polyreactivity
14 | QVQLVESGGGLVQAGGSLRLSCAASGRTFDHNAMGWYRQAPGKERELVAAINSSGGRTYYADSVKGRFTISRDNAQNTVYLQMNSLQPEDTAVYYCATVNVRGPPYDYWGQGTQVTVSS | high polyreactivity
15 | QVQLVESGGGLVQAGGSLRLSCAASGRTFDIYAMGWYRQAPGKARELVAAISIAGSTNYADSVKGRFTISRDNAKNTVYLQMNSLKPEDTAVYYCAAAKPKKSRGSAYEYWGQGTLVTVSS | high polyreactivity
16 | QVQLVESGGGLVQAGGSLRLSCAASGRTFDKYAMGWYRQAPGKERELVAAITRSGGSTYYADSVKGRFTISRDNAKNTVYLQMNSLKPEDTAVYYCAKRYWSYRWKYDYWGQGTQVTVSS | high polyreactivity
17 | QVQLVESGGGLVQAGGSLRLSCAASGRTFDLYAMGWYRQAPGKERELVARITNIDDSTYYADSVKGRFTISRDNAKNTVYLQMNSLKPEDTAVYYCNAVVTKYAKSRFLYYYWGQGTQVTVSS | high polyreactivity
18 | QVQLVESGGGLVQAGGSLRLSCAASGRTFDPNVMGWYRQAPGKERELVAAISRGGSTYYADSVKGRFTISRDNAKNTVYLQMNSLKPEDTAVYYCAATHYGHSISYWFDYWGQGTQVTVSS | high polyreactivity
19 | QVQLVESGGGLVQAGGSLRLSCAASGRTFDRDAKGWYRQAPGKERELVAVIRFIGGSTYYAYSVKGRFTISRDNAKNTVFLQMNSLKQEDTAVYDCATRGPIWGQRYYKGYYWGQGTQVTVSS | low polyreactivity
20 | QVQLVESGGGLVQAGGSLRLSCAASGRTFDRNTMGWYRQAPGKQRELVAAISSSGGSTYYADSVKGRFTISRDNAKNTVYLQMNSLKPEDTAVYYCAARQSPNRWMGYWGQGTQVTVSS | high polyreactivity
21 | QVQLVESGGGLVQAGGSLRLSCAASGRTFDTNAMGWYRQAPGKERELVAGITIGGSTNYADSVKGRFTISRDNAKNTVYLQMNILKPEDTAVYYCAADYGSVRGYAADYYEPEYDYWGQGTQVTVSS | low polyreactivity
22 | QVQLVESGGGLVQAGGSLRLSCAASGRTFDVYTMGWYRQAPGKERELVAAINGGGSTYYADSVKGRFTISRDNAKNTVYSQMNSLKPEDTAVYYCAAKFRAGRSSYYWGQGTQVTVSS | high polyreactivity
23 | QVQLVESGGGLVQAGGSLRLSCAASGRTFDYNAMGWYRQAPGKERELVAAISSSGGSTYYADSVKGRFTISRDNAKNTVYLQMNSLKAEDTAVYYCATLYPRKSIYYYWGQGTQVTVSS | high polyreactivity
24 | QVQLVESGGGLVQAGGSLRLSCAASGRTFDYYVMGWYRQAPGKERELVAAISRRGGSTYYADSVKGRFTISRDNAKNTVYLQMNSLKPEDTAVYYCAAQYYYAREDYWGQGTQVTVSS | high polyreactivity
25 | QVQLVESGGGLVQAGGSLRLSCAASGRTFEGNAMGWYRQAPGKERELVAAISTSGGRTYYADSVKGRFTISRDNAKNTVYLQMNSLKPDDTAVYYCAVDHYSSYEYWGQGTQVTVSS | low polyreactivity
26 | QVQLVESGGGLVQAGGSLRLSCAASGRTFEGNAMGWYRQAPGKERELVAAITSGGRTNYADSVKGRFTISRDNAKNTVYLQMNSLKPEDTAVYYCAVETRDRSTYFPGQAYDYWGQGTQVTVSS | low polyreactivity
27 | QVQLVESGGGLVQAGGSLRLSCAASGRTFERNAMGWYRPAPGKERELVAAITWSGVSTYYADSVKGRFTISRDNAKNTVYLQMNSLKPEDTAVYYCAADWDWRFHRMNYWGQGTQVTVSS | low polyreactivity
28 | QVQLVESGGGLVQAGGSLRLSCAASGRTFEVYTMGWYRQAPGKERELVARIRRGASTNYADSVKGRFTISRDNAKNTVYLQMNSLKPEDTAVYYCNARYTAVAVRWTWPYETQADDYWGQGTQVTVSS | low polyreactivity
29 | QVQLVESGGGLVQAGGSLRLSCAASGRTFEYYAMGWYRPAPGKERELVAAITWSVGSTYYADSVKGRFTISRDNAKNTVYLQMNSLKPEDTAGYYCAVDVVYTWPFPVEYYYWGQGTQVTVSS | high polyreactivity
30 | QVQLVESGGGLVQAGGSLRLSCAASGRTFEYYAMGWYRQAPGKERELVAAITYSGDSTYYADSVKGRFTISRDNAKNTVYLQMNSLKPEDTAVYYCAADWSSLKDDYWGQGTQVTVSS | low polyreactivity
